According to the supplement of paper PMC9170038:

Tested on: MS2 coat protein
Assay: apparent KD of MS2 coat protein; higher = weaker reporter binding
Conditions: Eterna round: R107; input ligand: arginine 13.2 mM
Experimental: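 RNA-MaP round R107: designed RNA switches with theophylline, tryptophan, arginine or FMN aptamers are transcribed on-chip within common flanks. They are titrated with SNAP-549-labelled MS2 coat protein in RNA-MaP buffer (100 mM Tris pH 7.5, 80 mM KCl, 4 mM MgCl2), without ligand or with the indicated ligand. Median apparent KD per design.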

Compared with “AGGAAUGUCACGGCCGCCACUGACGCUAAAAUGGGCUCGAGCCGACAUGAGGAUCACCCAUGUUCCAGGACCGGGUGAAUCCUGG [theeternabot_sameState_MS2_Trp_B_40]”, “GCGGUACGUACUGAUACCAGAGACAUGAGGAUCACCCAUGUCCCAUGGUCAUGCCUCAGACUCCCUUGGCAGCAGGAUAAGUGCG [Exclusion Theophylline B GF3]” is 7.1-fold lower in “apparent KD of MS2 coat protein” value: 102 nM for the first, 14.3 nM for the second.

Compared with “UGGUACAUGGCGGCCGCCACUGGGUUGAAAACCUGAGGAUCACCCUGGUAAAACGCGAAAGCGACUAGGACCGGGUCAUGUACCU”, “GUCUGUGUCUGAAGGAGCGACAUGAGGAUCACCCAUGUCUCCCGUUAUGGGAGUUCCUUAGGUCAGGUAGGUCGCAGACACAGAC [#1 Exclusion - Arginine B Attempt #27 (Inspired by Omei)]” is 1.5-fold lower in “apparent KD of MS2 coat protein” value: 167 nM for the first, 110 nM for the second.

“UAAAACAUGAGGAUCACCCAUGUAUUGAGUCGAGGACCGGUACGGCCGCCACUCGGCAAUAAUAACGACGCAUAGCAUGUAGGAA [theeternabot_sameState_MS2_Trp_A_41]” and “ACAUGAGGAUCACCCAUGUAAAUAGCGGAAGGAGCGUGCAAAAGCACAGGUAGGUCGCCGAUAUAAUAAUUGGGUAAUAUAUUAU [#27 Exclusion - Arginine A]” are within 1.5-fold of each other in “apparent KD of MS2 coat protein” value: 12.8 nM for the first, 17.7 nM for the second.

First: AUAACACAUGAGGAUCACCCAUGUAAGGAUACCAGUUUCUGAUUAAACCCUUGGCAGCCUAGAGAUAGUCAUGUAAUAACGGCGA [theeternabot_sameState_MS2_Theo_A_19]
Second: GCGUUGGCCACGGCCGCCACUCAGGUACCGCGCGUAGUGAACUUACAUGAGGAUCACCCAUGUCUGAGGACCGGGUGGCCGCCAC [theeternabot_sameState_MS2_Trp_B_27]
The “apparent KD of MS2 coat protein” value of the first is 2.6-fold lower: 12.4 nM for the first, 31.7 nM for the second.

First: UAGAUAGAGGGAAGGAGCGCGAUAACAUAACAUGAGGAUCACCCAUGUAAGAAAUUAAUAAUGCAGGUAGGUCGCCCAAGAUGAU [Same State Arginine B gf1]
Second: AUAACAUGAGGAUCACCCAUGUAAGCUGAAGGAGCGCUGGAAACAGCAGGUAGGUCGCAGCGGCGACCUUCAUGGGUAAGGUCGC [(M1)-(M2)-(Arg1)-(Arg2)-(A)'-(M)'-(A)''_Design4]
The “apparent KD of MS2 coat protein” value of the first is 3.8-fold lower: 8.76 nM for the first, 33.1 nM for the second.

Compared with “AGCGACAUGCGUGAUACCAGCUACAUGAGGAUCACCCAUGUCAGCAGGGAACUGCUGUGUAGCCCUUGGCAGCACAGUGCAUGUC [Exclusion - Theophylline B (Freestyle 29)]”, “AGAAUAACACAUGAGGAUCACCCAUGUGAUACCAGCUAGGAAACUAGCCCUUGGCAGCACAUAAGGUGAUCCAGCUGCCAAGAAU [(M1)-(M2)-(T1)-(T2)-(M)'-(T)'_Design1_2/19/17]” is 5-fold higher in “apparent KD of MS2 coat protein” value: 13 nM for the first, 65.2 nM for the second.

First: CUAUGCAGGUCGGCCGCCACUACACACAUGAGGAUCACCCAUGUAGUUACUGGGUGAAGUGGCAGUAGGACCGGGACCUGCAUAC [Brourdmod10]
Second: UCCUGCAGAGCGGCCGCCACUGUGUUGCGUGAGGAUGACCCAACAUGAGGAUCACCCAUGUUGUUUAGGACCGGGCUUGCCUCGA [xcmulliny]
The “apparent KD of MS2 coat protein” value of the first is 12-fold higher: 139 nM for the first, 12 nM for the second.

First: AGCCACUCGAGUGAUCCUCACGAGUGGCAACGAGGACCGGUACGGCCGCCACUCGAAUCAACAUGAGGAUCACCCAUGUAAUAAU [Brourdmod01]
Second: CGAUAUAUACGAAGGAGCGACAUGAGGAUCACCCAUGUCUACCACGUCGAAAGACGCUCAUGUCAGGUAGGUCGCGUAUAUAUCG [Astros-Eli-mod9]
The “apparent KD of MS2 coat protein” value of the first is 2-fold lower: 28.2 nM for the first, 56.7 nM for the second.

Compared with “CCGACAUGAGGAUCACCCAUGUGAACAGAUACCAGUCUGGUAAUAGACCCUUGGCAGCUGAACCAGGAAACUAUGGUGAUCCUGG [Theo A SS t3]”, “AGCCAUGGAAACAUGGCGGCGGCAUGAGCGCGAGGACCGGUACGGCCGCCACUCGGGCGACAUGAGGAUCACCCAUGUUCCUCAU [ETA NP+V+V2 #22 Same Structure]” is 2.2-fold higher in “apparent KD of MS2 coat protein” value: 66 nM for the first, 145 nM for the second.

Going from “ACAUGAGGAUCACCCAUGUUCCUCAUUGAUACCAGUGAAUUUAGACGCCCUUGGCAGCGAGUUUUUUAAGAAGAAGUUUUUUUUU [6.E]” to “UUGCAUAUCUUGGAUACCAGCACAUGAGGAUCACCCAUGUCCGCGGGAUAGCUCCAGAUGUGCCCUUGGCAGCCACAUGCACUUG [Quinzama]”, the “apparent KD of MS2 coat protein” value falls from 551 nM to 10.9 nM (51-fold).

Compared with “ACUAGUUGUGCAGAUACCAGACACGAGGAUCACCCGUGUUUGGGAUGUUCGCAUCUUCCUGUCCCUUGGCAGCUGUACAUCUAGA [Omei Theo B Exc v8]”, “UAAUAAAUAAGUGAUACCAGCGAGAAAACAUGAGGAUCACCCAUGUUCGCCCAUGUUAAGCGCCCUUGGCAGCACAAAUAUAAAA [AstrosExyTheB#1]” is 1.6-fold higher in “apparent KD of MS2 coat protein” value: 15.8 nM for the first, 25.6 nM for the second.

“CGCAAGCAACAUGAGGAUCACCCAUGUGAAGGAGCGCCGAAUAAGGCAGGUAGGUCGCACAUGAAUAAAUCAUGUAAAAGCUUGC [MAT - Exclusion Arginine A - Mod of Eli - D22]” and “AGCACGGUGAUGGUAGCCGGACGCUAAGUACGAGGACCGGUACGGCCGCCACUCGGAGUCCUACGACAUGAGGAUCACCCAUGUA [Same State Trp A GF12]” are within 1.5-fold of each other in “apparent KD of MS2 coat protein” value: 33.7 nM for the first, 34.3 nM for the second.

First: UGUAUUGGAAACAGUACUAGUGAUCCGGUCCGAGGACCGGUACGGCCGCCACUCGAAAUUAAUAAACAUGAGGAUCACCCAUGUA [Ex Tryptophan A 11]
Second: UUGCCCAGUACGGCCGCCACUGUGUGCAGGGAACCCAGGUCCACAUGAGGAUCACCCAUGUACAGCAGGACCGGGUACUUGCAAU [Ininladia]
The “apparent KD of MS2 coat protein” value of the first is 1.9-fold higher: 15.7 nM for the first, 8.14 nM for the second.

First: UACGUGGAUGCGGCCGCCACUGCUCUGAGCGAGUUGCUCUAUGGACAUGAGGAUCACCCAUGUCACAGGACCGGGCACGCUUUAA [theeternabot_sameState_MS2_Trp_B_50]
Second: UGCAUUAUACAUGGAUCACCCAUGUAGACACGAGGACCGGUACGGCCGCCACUCGGAAGAGGAAACAUGAGGAUCACCCAUGUGA [Try A SS t2]
The “apparent KD of MS2 coat protein” value of the first is 4.7-fold lower: 9.14 nM for the first, 42.7 nM for the second.

First: AGACUUCGCAUAGGAAAACUAUGUGAAGUCCGAGGACCGGUACGGCCGCCACUCGUCCUCAACAUGAGGAUCACCCAUGUAAUAA [#OpenEnded #CuTurnoff #Tail]
Second: UCACAUGAGGAUCACCCAUGUAUAGUUGAAGGAGCGAUCAGGAGGUCAGGUAGGUCGCAGCACAUGAGGAUCACCCAUGUAUCGA [DOUBLE!!! :-D #4]
The “apparent KD of MS2 coat protein” value of the first is 1.6-fold lower: 21.1 nM for the first, 34 nM for the second.

First: UUCGCGGCCGCGCUGCACAUGUGUGUGUUACGAGGACCGGUACGGCCGCCACUCGCGAUCGCACAUGAGGAUCACCCAUGUGGGA [Exclusion Tryp A GF17]
Second: GCCAGACAUGAGGAUCACCCAUGUAGCGAUACCAGCUCUGUUGUGAGCCCUUGGCAGCGCACUGGCAUCGUAGGUGAUCCAAUAA [(T)''-(Ms2)-(Theo)-(T)'-(M)'_Design1]
The “apparent KD of MS2 coat protein” value of the first is 2.1-fold lower: 24.1 nM for the first, 50.4 nM for the second.

Going from “UCGGGCAGAGCGGCCGCCACUGUUUGGCGUGCGGAUGACGGAACAUGAGGAUCACCCAUGUUGUUUAGGACCGGGCUUGCGGCGU [ipimullin]” to “UACAUAUGCCGAAGGAGCGCGAGAUGCAAAGCAUCAAUCCUUACAUGAGGAUCACCCAUGUCGCAGGUAGGUCGCGGCAUAUGUU [ArgBX 2]”, the “apparent KD of MS2 coat protein” value rises from 12.1 nM to 26.8 nM (2.2-fold).

Going from “GAUAUAUAGGCGGCCGCCACUGAUUUUCAUAUAUAUAUAACAUGAGGAUCACCCAUGUAGAUAUACAGGACCGGGCCUAUAUAUU [aaaB]” to “UGAUCCUGCAGGGAUACCAGCGCCGCUAGAUAACUAUGCACAUGAGGAUCACCCAUGUAACGCCCUUGGCAGCCCAACUAAAGGG [Same State Theophylline B GF21]”, the “apparent KD of MS2 coat protein” value rises from 15.5 nM to 28.9 nM (1.9-fold).

First: AGAGCAUUGACGGCCGCCACUCAUGUCACAUGAGGAUCACCCAUGUGAUGGGUAAUUGCCCGGUUGAGGACCGGGUCAAUGCUCA [Omei Tryp SS B v4]
Second: AAAACACAUGAGGAUCACCCAUGUCAUGAUACCAGUCAACAUGAGGACCCUUGGCAGCAUAAAAUGGGUAACAUGAGGAUCACCC [AstrosEXyTheA#1]
The “apparent KD of MS2 coat protein” value of the first is 22-fold lower: 5.88 nM for the first, 129 nM for the second.

Same assay, conditions: Eterna round: R107; input ligand: none

For “GCGGUACGUACUGAUACCAGAGACAUGAGGAUCACCCAUGUCCCAUGGUCAUGCCUCAGACUCCCUUGGCAGCAGGAUAAGUGCG [Exclusion Theophylline B GF3]”, the “apparent KD of MS2 coat protein” value was 13.9 nM.
